The DeepSol protein solubility set

Assay: soluble on expression in E. coli; label from the status in PepcDB or PDB records

Sequence	soluble on expression in E. coli
MGSDKIHHHHHHMFTSFAFVTGAFVLFGCDNGRNSDTICKNNPELCEDLHKDSWCRYEKGDLIRQRFILKTTPNPTGKQIYDQLRFLEVYSKCIELASGVQHKVNVQRTNDRLRAFGISVQNLEELQESTKGSQDPYLAYYHWSRLDDAKSLAVLIKAEKEGQISDPELLSKLAIYYLKTDAARAKKLYLDVLGMVDADHLDPDWLLGLATASRTLGDLDGSYLYSRANIALTKQSVNEAQMLALLTGDKTKAAMLDSEAEQLAKAVSSGNFAGSAIEKRLRAEIDTERAKIEPVAPLAQD	not soluble
MGSDKIHHHHHHMFYFTVNNPQDPLSTEIVETNRRDLAFWHRLRPKDDDDLATAINKICVRTGLSRKLIAACLFSICFLPYLPNFHKLVEKLGHLDMARINAITKAGEKVPSEKRELFDAYLVDYLTPRAEAQCLPQASSISAMMRKFIAQHCPDDKASSATNDGSIRYRRNNKGGISITVDATASEVTEIKAALEQMSKDKDCTPGTSLLHIIRGLPTKVVLNTYGTKDSPEYLEGGTWLSKEQSEFWKTRTTSSRDMDAAHFSYTTAYAPTREMRVYIKGLRTTCSVPGCSVAVENCQLDHIIPWGEGGPTTPWNIHPLCVFHHIQKTEGRLQCYPLPDGTVLFLVDGIPVFSIPDGPLSKSNKTWGTKFGKYMERRIAA	not soluble
MGSDKIHHHHHHMGACQPNNSQLYIGIDGGGSKCRATIYTAEHQKLGTGVAGRANPLHGLEQTFLSITESTQLAIADAGLAPSTSQQLIAGIGLAGVNVSHYYQHIVNWQHPFKAMYLTTDLHTACIGAHNGEDGAVIITGTGSCGYAHVGDNTICLGGHGFALGDKGSGAWLGLKAVEHVLLALDGFACATSLTERLLSHFNALDAMGIVEQLAGQSSSAYAKLARSVLACAQEGDAVAISIVKEGAEYICKLARKLFAVNPSRFSMIGGLVEPLYPWLDEDVAKRISPALTPPEFGAFLFARKQFNTKA	not soluble
MGSDKIHHHHHHMGDRLYFERFIWFDSQIRNGCYPNASALARKFEFDIKTAQRSIEYFRDRLGAPLDYDASRRGYRYYDPNYQLPVTHLSESELVALLASRKLLTDAAAGPLGDELEKVSNRLGALLSNGLKGKINPERAFSFRWNGMAASDPVIFEQAVSALLSCRLLTFCYYSPLAGACTARTVEPHHMINYMGAWHLIAWCRLRNDWRDFHLARVSLAHLEEEIFSPRDETTWRPCLDETFGIFQNRERFDVTIRFSADRARWVREELWHQDQSTRDLDTGEVELTIPVSHEAEILMEVLKHGSHAEVMEPIWLRDRIREEIGKMQKKY	not soluble
MGSDKIHHHHHHMGEVYEKNNIDFDSIAKMLLIKYKDFILSKFKKAAPVENIRFQNLVHTNQFAQGVLGQSQHLCTVYDNPSWHSIVLETLDLDLIYKNVDKEFAKDGHAEGENIYTDYLVKELLRYFKQDFFKWCNKPDCNHCGQNTSENMTPLGSQGPNGEESKFNCGTVEIYKCNRCGNITRFPRYNDPIKLLETRKGRCGEWCNLFTLILKSFGLDVRYVWNREDHVWCEYFSNFLNRWVHVDSCEQSFDQPYIYSINWNKKMSYCIAFGKDGVVDVSKRYILQNELPRDQIKEEDLKFLCQFITKRLRYSLNDDEIYQLACRDEQEQIELIRGKTQETKSESVSAASKSSNRGRESGSADWKAQRGEDGK	not soluble
MGSDKIHHHHHHMGFDVEALKAALEAHGRVIRVVVAEVKGSAPREVGAAMLVWDGGQSGTIGGGTLEFEAADAARRQDAPYRLSTHALGPDLGQCCGGAVTLLSEVYTEVNIAQLTGQVISRAVAPGPEPLAVSRILNHARAQGLAPAPQLIAGWMIEPVACATRPLWIWGAGHVGRALVEVLAPLPDYAITWVDVMRSKYPQEIPASVTALPAQEPGRLVPHAPTEAYHLILTYSHQLDLALCHRLLEHGFDFAGLIGSKTKWARFRARLAALGHRPEQIARLTCPIGMPELGKHPHAIAIGVAAELMALSQRLDLKKEHSA	not soluble
MGSDKIHHHHHHMGGCCSQEGCNTRPRYLPLKCYPGLPMRATRRLDLSAVERALREVQGRFAELSQHFTEPRDPFTDEVLLNVVEGYALIDDYVARGIDLFDLQQLNLMLEINATVLCGSDPARRLEFAPHLAATEAHFFNNVEGGIKDLYNWYCAYRSDSIWKRAAGVYVRILSKPQLFIEGNNRTGSLIVSYLLMRAGLPPFVLSLDNAEGYFNPSSVIRNSAKHGVKALYELPKIKKKYAAFLEAKAPEPGKFFLNGTPVPACEGSR	not soluble
MGSDKIHHHHHHMGHSLLFAVDVRPPHDVGVDGPRTASMCQNEVVADLKQRRPSVEQIIRIGIDTSKHVFQLHGVNAAEEPVLRKKLRRKEVVALFEKLSPTVVAIEACGGSHHWARLLQSFGHEVKLIPPQYVKPYVKRGKNDTADAEALCEAMSRPTMRFVPVKTAKQQAALMLVGLRDRLIRNRTQLANAIRGYAAEYGLIAARGMCKIEPLLERIAADKMLPDLARELFALHAKEYAQLQTQLKDVDAKLMAWHRAEACSQRLAQIPGVGPIGASLLVMKTPAPETFRSARHFAAWLGLTPKDHSTAGRVRLGVITRAGDEALRSVLVAGATAVIRHVRRGRGAVSPWLVDLLKRKPPKLAAVALANKIARIAWKLMVSGEIYGAKPMPPASARAA	not soluble
MGSDKIHHHHHHMGKFDQITYFIAVVEEHGFAAAARKFGVSTAAVSRQIARLEAELKAELLVRTTRKLSLTDIGARYYQQCKKTLLELNEAEIAIANSRNEAVGILNVTSSRYFAMRFLLPYLPEFMELNPKLQIKIELAERFPDLAQENVDVLFGVSMEGPPELVRKRVSTTRYVLCASPDYLAKNGIPKTPSELGKHRYITHSMRNPDNLVTFKDNEQIYVEPVLWLNDSRALCECALLGMGIIKLHEYIVTEALQDGRLIEVLPEFQESSLSVYLYYQASRYLQPKIRRFIDFFTK	not soluble
MGSDKIHHHHHHMGKTIAIMQPYFLPYIGYWQLMKASDIFVVYDNIKYTKKGWVNRNRYLSNGKIKLFSIPLMKASNSLQIKDRYLAETYKLESAKTLRKIKDAYAVSKNFHPCFNLIERCFNANENNLFEFIYNSVAIFKDVLGLRAQLVVSSSIACDHSLNSAERVKAICTELGAESYINPVGGEHLYERDDFQKLGINLRFLKPRIEEYPQLSCQFQPYMSILDICMSCTFDEVKNNII	not soluble
MGSDKIHHHHHHMGKYQDSKKVVRNYFEALENATGDEVENVLKQHMKSDYNWKGVYPFREQEGTENVADVFWKPLKKSLSNMQRRQDIFIAGTNEIDNSEWVMSMGHFMGLFDNDWLGIKHTRKMISLRYAEFNCVQDGKIAKTGLFVDIIGFMIQAGVNPLPPQTGSYFVYPGPIDHNGLLFEDADEVEGVKTLALVNKMVDDLSELNESGAMGCPPEILEKSWAKDMIWYGPGGIGASYTIPRYQEQHQLPFRNNLKGKTFNGHVCRFAEGNFACFFGWPNLTNVPCGGFLGLPGGEVKADMQVVDVYYRKGDKLQENWVLIDIPYWLKQQGLDILERTKSIFNA	not soluble
MGSDKIHHHHHHMGLMDFRPYFRVTVDGKDISGVLAPRLVSLRVTDGAGVQSDTVEIRLSDTNLFQRISEPRAGAEIEVWLGFPLSLSYMGLFVADTIETGGPPDTVTITGTASVNGETTSGKTALTDQKKRSWPEGTTIGAMVEKIASEHGLIAMVSESLRAEALPHIDQIDESDINLLSRIARDFDAIAKPGNGRLIMTRRGESLTASGQPLPVVRVDKSSVTEWRYRNSLRERVGRVIATTQDLEAGQPVEVEAGQGEPALRLRRRFPDKVTARKTAESELKRLGRAGRSLSITMPGNSDIVAEARLSASGFRSYIDGEWLVSRATHILDSGGYRTAITAEPVE	not soluble
MGSDKIHHHHHHMGPINFEKAKKEREQAVIARLIDIRKAQQEYRSLHHGMYTEHFDTLIDFVKNQKLPFVMKVGQLTDDQLESGLTEKKAMAIINKAKKTGKYDEVKKNGLENFKRDTMWVAVMDTIYPKGFNADSMKYIPYGNGAIFEMNVKNDTAKSGAPVYLFEVKAPYETYLGGLDRQEIINLKDLNEKLGRYSGLMVGSIDNPNNGAGNWE	not soluble
